The values below come from paper PMC2133194.

Test in all cases: flow cytometry on cells
For orientation: A flow cytometer gives signals particle by particle.

Experiment [1] concerns the target human CD34 on CHO/FTVII/C2GnT cells cotransfected with KSGal6ST and HEC-GlcNAc6ST (human) (UniProt P28906).
In experiment [2] the target is human CD34 on CHO/FTVII/C2GnT cells cotransfected with HEC-GlcNAc6ST (human) (UniProt P28906).
Experiment [3] deals with human CD34 on CHO/FTVII/C2GnT cells cotransfected with KSGal6ST (human) (UniProt P28906).
Experiment [4] has as its target human CD34 on CHO/FTVII/C2GnT cells cotransfected with KSGal6ST and HEC-GlcNAc6ST (human) (UniProt P28906). This is another data set of the same source.
Experiment [5] concerns the target human CD34 on CHO/FTVII/C2GnT cells cotransfected with HEC-GlcNAc6ST (human) (UniProt P28906). This is another data set of the same source.
Experiment [6] has as its target human CD34 on CHO/FTVII/C2GnT cells cotransfected with KSGal6ST (human) (UniProt P28906). The source holds these as a separate data set.

Where two headings read alike, the source gives them in different places.

With “L-selectin/IgM chimera (from UniProt P18337 39-332) (Fc fusion)”, in experiment [1], the MFI of L-sel/IgM staining (KSGal6ST 0.5 ug, HEC-GlcNAc6ST 0.5 ug) was 836 MFI. This substance registered an MFI of L-sel/IgM staining (KSGal6ST 0 ug, HEC-GlcNAc6ST 1.0 ug) in experiment [2] of 60 MFI. Further, the MFI of L-sel/IgM staining (KSGal6ST 1.0 ug, HEC-GlcNAc6ST 0 ug) in experiment [3] worked out at 197 MFI. For the same substance, in experiment [4], the MFI of L-sel/IgM staining (KSGal6ST 0.5 ug, HEC-GlcNAc6ST 0.5 ug) is 935 MFI; the MFI of L-sel/IgM staining (KSGal6ST 0.5 ug, HEC-GlcNAc6ST 1.0 ug) came to 830 MFI; the MFI of L-sel/IgM staining (KSGal6ST 1.0 ug, HEC-GlcNAc6ST 0.5 ug) was determined as 917 MFI. In experiment [5], this substance returned an MFI of L-sel/IgM staining (KSGal6ST 0 ug, HEC-GlcNAc6ST 1.0 ug) of 114 MFI and an MFI of L-sel/IgM staining (KSGal6ST 0 ug, HEC-GlcNAc6ST 1.5 ug) of 163 MFI. In experiment [6], the MFI of L-sel/IgM staining (KSGal6ST 1.0 ug, HEC-GlcNAc6ST 0 ug) came to 364 MFI and the MFI of L-sel/IgM staining (KSGal6ST 1.5 ug, HEC-GlcNAc6ST 0 ug) stood at 391 MFI.
